Reference: publication PMC9482650, “Quantitative fragmentomics allow affinity mapping of interactomes” (Nature Communications, 2022)

T1: CARD11, Q9BXL7
T1 sequence (Q9BXL7 662-765, limits assumed, looked up): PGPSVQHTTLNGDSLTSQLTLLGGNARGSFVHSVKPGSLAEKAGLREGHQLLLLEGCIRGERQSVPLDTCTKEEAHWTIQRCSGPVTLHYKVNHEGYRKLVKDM

T2: TJP3_3, O95049
T2 sequence (O95049 375-456, limits assumed, looked up): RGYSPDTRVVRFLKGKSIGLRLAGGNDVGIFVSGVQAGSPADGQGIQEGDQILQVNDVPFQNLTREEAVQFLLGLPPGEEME

T3: ARHGEF11, O15085
T3 sequence (O15085 42-136, limits assumed, looked up): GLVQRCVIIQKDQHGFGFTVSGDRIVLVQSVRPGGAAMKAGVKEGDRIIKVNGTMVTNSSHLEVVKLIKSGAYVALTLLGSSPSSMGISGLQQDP

T4: DVL3, Q92997
T4 sequence (Q92997 244-331, limits assumed, looked up): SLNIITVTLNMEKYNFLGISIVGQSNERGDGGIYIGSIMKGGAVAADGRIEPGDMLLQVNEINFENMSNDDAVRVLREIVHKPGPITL

T5: SNTA1, Q13424
T5 sequence (Q13424 82-180, limits assumed, looked up): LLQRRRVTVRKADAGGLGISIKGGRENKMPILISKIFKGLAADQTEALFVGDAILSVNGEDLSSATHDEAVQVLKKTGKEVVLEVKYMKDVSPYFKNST

T6: NHERF3_1, Q5T2W1
T6 sequence (Q5T2W1 4-100, limits assumed, looked up): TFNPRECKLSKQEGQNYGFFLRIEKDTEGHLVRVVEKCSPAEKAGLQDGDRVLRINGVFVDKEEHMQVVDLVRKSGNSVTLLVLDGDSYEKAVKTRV

T7: GRIP1_2, Q9Y3R0
T7 sequence (Q9Y3R0 145-248, limits assumed, looked up): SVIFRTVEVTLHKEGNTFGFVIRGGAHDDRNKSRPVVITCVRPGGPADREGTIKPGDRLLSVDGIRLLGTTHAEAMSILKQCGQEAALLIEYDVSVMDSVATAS

T8: PCLO, Q9Y6V0
T8 sequence (Q9Y6V0 4491-4600, limits assumed, looked up): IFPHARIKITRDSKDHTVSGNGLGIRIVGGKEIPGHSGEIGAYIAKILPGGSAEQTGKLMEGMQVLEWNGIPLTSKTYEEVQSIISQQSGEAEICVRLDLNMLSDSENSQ

T9: TIAM2, Q8IVF5
T9 sequence (Q8IVF5 885-986, limits assumed, looked up): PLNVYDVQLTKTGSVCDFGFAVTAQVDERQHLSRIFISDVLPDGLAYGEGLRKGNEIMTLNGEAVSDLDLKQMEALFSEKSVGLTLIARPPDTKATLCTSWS

T10: MPP6, Q9NZW5
T10 sequence (Q9NZW5 125-219, limits assumed, looked up): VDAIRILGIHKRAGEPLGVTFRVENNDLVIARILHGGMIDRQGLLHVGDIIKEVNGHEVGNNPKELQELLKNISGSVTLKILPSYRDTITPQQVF

T11: APBA2_1, Q99767
T11 sequence (Q99767 563-664, limits assumed, looked up): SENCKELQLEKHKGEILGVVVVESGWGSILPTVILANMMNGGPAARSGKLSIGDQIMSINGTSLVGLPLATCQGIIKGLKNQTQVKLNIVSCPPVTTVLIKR

T12: FRMPD1, Q5SYB0
T12 sequence (Q5SYB0 52-145, limits assumed, looked up): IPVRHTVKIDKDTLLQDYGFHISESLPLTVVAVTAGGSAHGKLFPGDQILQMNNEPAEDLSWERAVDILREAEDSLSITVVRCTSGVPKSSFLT

T13: APBA3_1, O96018
T13 sequence (O96018 389-490, limits assumed, looked up): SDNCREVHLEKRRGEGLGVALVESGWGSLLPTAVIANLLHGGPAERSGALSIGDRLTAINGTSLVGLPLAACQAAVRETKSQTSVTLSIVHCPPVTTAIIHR


Molecular target: PICK1, Q9NRD5
Test: holdup assay
Design: key: below the threshold = too weak to quantify, mostly under pKd 3.1 to 4
Settings: plain residues with an end cap or a label only (N-terminal biotin on a linker: ado-ado)

Chain of PICK1, Q9NRD5 (Q9NRD5 17-115): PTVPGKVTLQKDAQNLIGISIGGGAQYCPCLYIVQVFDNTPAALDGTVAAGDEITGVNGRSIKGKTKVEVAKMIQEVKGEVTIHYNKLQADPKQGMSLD

Binder	pKd
RPGFASESKV [ADRB1, P08588]	below the threshold
GQETPLNTFC [MAP7D2, Q96T17]	below the threshold

Molecular target: GRIP2_3, Q9C0E4
Test: holdup assay
Design: key: below the threshold = too weak to quantify, mostly under pKd 3.1 to 4
Settings: plain residues with an end cap or a label only (N-terminal biotin on a linker: ado-ado)

Chain of GRIP2_3, Q9C0E4 (Q9C0E4 238-339): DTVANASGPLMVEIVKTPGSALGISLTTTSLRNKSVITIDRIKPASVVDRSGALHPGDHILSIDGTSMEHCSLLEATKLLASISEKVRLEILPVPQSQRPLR

Binder	pKd
RPGFASESKV [ADRB1, P08588]	below the threshold
GQETPLNTFC [MAP7D2, Q96T17]	below the threshold

Molecular target: NOS1, P29475
Test: holdup assay
Design: key: below the threshold = too weak to quantify, mostly under pKd 3.1 to 4
Settings: plain residues with an end cap or a label only (N-terminal biotin on a linker: ado-ado)

Chain of NOS1, P29475 (P29475 9-101): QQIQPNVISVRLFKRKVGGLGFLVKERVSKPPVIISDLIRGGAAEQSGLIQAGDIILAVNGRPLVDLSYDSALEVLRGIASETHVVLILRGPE

Binder	pKd
RPGFASESKV [ADRB1, P08588]	3.6
GQETPLNTFC [MAP7D2, Q96T17]	below the threshold

Molecular target: T1, CARD11, Q9BXL7
Test: holdup assay
Design: key: below the threshold = too weak to quantify, mostly under pKd 3.1 to 4
Settings: plain residues with an end cap or a label only (N-terminal biotin on a linker: ado-ado)

Binder	pKd
RPGFASESKV [ADRB1, P08588]	below the threshold
GQETPLNTFC [MAP7D2, Q96T17]	below the threshold

Molecular target: NHERF4_2, Q86UT5
Test: holdup assay
Design: key: below the threshold = too weak to quantify, mostly under pKd 3.1 to 4
Settings: plain residues with an end cap or a label only (N-terminal biotin on a linker: ado-ado)

Chain of NHERF4_2, Q86UT5 (Q86UT5 220-308): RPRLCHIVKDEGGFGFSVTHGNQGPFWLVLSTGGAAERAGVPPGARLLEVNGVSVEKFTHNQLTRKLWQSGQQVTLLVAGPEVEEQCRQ

Binder	pKd
RPGFASESKV [ADRB1, P08588]	below the threshold
GQETPLNTFC [MAP7D2, Q96T17]	below the threshold

Molecular target: T2, TJP3_3, O95049
Test: holdup assay
Design: key: below the threshold = too weak to quantify, mostly under pKd 3.1 to 4
Settings: plain residues with an end cap or a label only (N-terminal biotin on a linker: ado-ado)

Binder	pKd
RPGFASESKV [ADRB1, P08588]	below the threshold
GQETPLNTFC [MAP7D2, Q96T17]	below the threshold

Molecular target: DLG5_1, Q8TDM6
Test: holdup assay
Design: key: below the threshold = too weak to quantify, mostly under pKd 3.1 to 4
Settings: plain residues with an end cap or a label only (N-terminal biotin on a linker: ado-ado)

Chain of DLG5_1, Q8TDM6 (Q8TDM6 617-713): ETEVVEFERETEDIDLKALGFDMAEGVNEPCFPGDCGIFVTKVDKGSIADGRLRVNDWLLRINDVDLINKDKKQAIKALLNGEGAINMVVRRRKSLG

Binder	pKd
RPGFASESKV [ADRB1, P08588]	below the threshold
GQETPLNTFC [MAP7D2, Q96T17]	below the threshold

Molecular target: CASK, O14936
Test: holdup assay
Design: key: below the threshold = too weak to quantify, mostly under pKd 3.1 to 4
Settings: plain residues with an end cap or a label only (N-terminal biotin on a linker: ado-ado)

Chain of CASK, O14936 (O14936 487-570): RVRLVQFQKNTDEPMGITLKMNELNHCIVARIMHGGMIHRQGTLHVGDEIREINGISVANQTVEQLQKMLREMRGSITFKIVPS

Binder	pKd
RPGFASESKV [ADRB1, P08588]	below the threshold
GQETPLNTFC [MAP7D2, Q96T17]	below the threshold

Molecular target: T3, ARHGEF11, O15085
Test: holdup assay
Design: key: below the threshold = too weak to quantify, mostly under pKd 3.1 to 4
Settings: plain residues with an end cap or a label only (N-terminal biotin on a linker: ado-ado)

Binder	pKd
RPGFASESKV [ADRB1, P08588]	4.05
GQETPLNTFC [MAP7D2, Q96T17]	below the threshold

Molecular target: T4, DVL3, Q92997
Test: holdup assay
Design: key: below the threshold = too weak to quantify, mostly under pKd 3.1 to 4
Settings: plain residues with an end cap or a label only (N-terminal biotin on a linker: ado-ado)

Binder	pKd
RPGFASESKV [ADRB1, P08588]	below the threshold
GQETPLNTFC [MAP7D2, Q96T17]	below the threshold

Molecular target: ARHGEF12, Q9NZN5-2
Test: holdup assay
Design: key: below the threshold = too weak to quantify, mostly under pKd 3.1 to 4
Settings: plain residues with an end cap or a label only (N-terminal biotin on a linker: ado-ado)

Chain of ARHGEF12, Q9NZN5-2 (Q9NZN5 other isoform, or with tags, fused parts or gaps): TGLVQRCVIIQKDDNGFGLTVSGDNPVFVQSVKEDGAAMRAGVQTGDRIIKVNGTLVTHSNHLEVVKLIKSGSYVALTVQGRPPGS

Binder	pKd
RPGFASESKV [ADRB1, P08588]	3.52
GQETPLNTFC [MAP7D2, Q96T17]	3.77

Molecular target: T5, SNTA1, Q13424
Test: holdup assay
Design: key: below the threshold = too weak to quantify, mostly under pKd 3.1 to 4
Settings: plain residues with an end cap or a label only (N-terminal biotin on a linker: ado-ado)

Binder	pKd
RPGFASESKV [ADRB1, P08588]	4.28
GQETPLNTFC [MAP7D2, Q96T17]	below the threshold

Molecular target: T6, NHERF3_1, Q5T2W1
Test: holdup assay
Design: key: below the threshold = too weak to quantify, mostly under pKd 3.1 to 4
Settings: plain residues with an end cap or a label only (N-terminal biotin on a linker: ado-ado)

Binder	pKd
RPGFASESKV [ADRB1, P08588]	4.36
GQETPLNTFC [MAP7D2, Q96T17]	4.26

Molecular target: T7, GRIP1_2, Q9Y3R0
Test: holdup assay
Design: key: below the threshold = too weak to quantify, mostly under pKd 3.1 to 4
Settings: plain residues with an end cap or a label only (N-terminal biotin on a linker: ado-ado)

Binder	pKd
RPGFASESKV [ADRB1, P08588]	below the threshold
GQETPLNTFC [MAP7D2, Q96T17]	below the threshold

Molecular target: T8, PCLO, Q9Y6V0
Test: holdup assay
Design: key: below the threshold = too weak to quantify, mostly under pKd 3.1 to 4
Settings: plain residues with an end cap or a label only (N-terminal biotin on a linker: ado-ado)

Binder	pKd
RPGFASESKV [ADRB1, P08588]	below the threshold
GQETPLNTFC [MAP7D2, Q96T17]	below the threshold

Molecular target: MAGI2_6, Q86UL8
Test: holdup assay
Design: key: below the threshold = too weak to quantify, mostly under pKd 3.1 to 4
Settings: plain residues with an end cap or a label only (N-terminal biotin on a linker: ado-ado)

Chain of MAGI2_6, Q86UL8 (Q86UL8 1141-1229): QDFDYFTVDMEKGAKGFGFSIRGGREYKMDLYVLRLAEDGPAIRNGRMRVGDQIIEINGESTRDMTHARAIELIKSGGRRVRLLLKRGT

Binder	pKd
RPGFASESKV [ADRB1, P08588]	below the threshold
GQETPLNTFC [MAP7D2, Q96T17]	below the threshold

Molecular target: GRIP2_6, Q9C0E4
Test: holdup assay
Design: key: below the threshold = too weak to quantify, mostly under pKd 3.1 to 4
Settings: plain residues with an end cap or a label only (N-terminal biotin on a linker: ado-ado)

Chain of GRIP2_6, Q9C0E4 (Q9C0E4 648-740): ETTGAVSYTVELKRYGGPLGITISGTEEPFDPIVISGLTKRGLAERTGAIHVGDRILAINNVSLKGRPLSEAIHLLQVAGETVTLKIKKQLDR

Binder	pKd
RPGFASESKV [ADRB1, P08588]	below the threshold
GQETPLNTFC [MAP7D2, Q96T17]	below the threshold

Molecular target: Inadl_6, Q8NI35
Test: holdup assay
Design: key: below the threshold = too weak to quantify, mostly under pKd 3.1 to 4
Settings: plain residues with an end cap or a label only (N-terminal biotin on a linker: ado-ado)

Chain of Inadl_6, Q8NI35 (Q8NI35 1058-1167): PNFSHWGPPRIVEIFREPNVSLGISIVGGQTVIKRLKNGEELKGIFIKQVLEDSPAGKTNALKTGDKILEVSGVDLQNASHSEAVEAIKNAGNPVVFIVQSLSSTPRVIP

Binder	pKd
RPGFASESKV [ADRB1, P08588]	below the threshold
GQETPLNTFC [MAP7D2, Q96T17]	below the threshold

Molecular target: T9, TIAM2, Q8IVF5
Test: holdup assay
Design: key: below the threshold = too weak to quantify, mostly under pKd 3.1 to 4
Settings: plain residues with an end cap or a label only (N-terminal biotin on a linker: ado-ado)

Binder	pKd
RPGFASESKV [ADRB1, P08588]	below the threshold
GQETPLNTFC [MAP7D2, Q96T17]	3.62

Molecular target: T10, MPP6, Q9NZW5
Test: holdup assay
Design: key: below the threshold = too weak to quantify, mostly under pKd 3.1 to 4
Settings: plain residues with an end cap or a label only (N-terminal biotin on a linker: ado-ado)

Binder	pKd
RPGFASESKV [ADRB1, P08588]	below the threshold
GQETPLNTFC [MAP7D2, Q96T17]	3.62

Molecular target: HTRA2, O43464
Test: holdup assay
Design: key: below the threshold = too weak to quantify, mostly under pKd 3.1 to 4
Settings: plain residues with an end cap or a label only (N-terminal biotin on a linker: ado-ado)

Chain of HTRA2, O43464 (O43464 355-458): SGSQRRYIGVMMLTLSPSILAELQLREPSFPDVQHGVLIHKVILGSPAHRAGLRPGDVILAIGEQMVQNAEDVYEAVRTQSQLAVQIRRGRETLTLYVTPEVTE

Binder	pKd
RPGFASESKV [ADRB1, P08588]	below the threshold
GQETPLNTFC [MAP7D2, Q96T17]	below the threshold

Molecular target: T11, APBA2_1, Q99767
Test: holdup assay
Design: key: below the threshold = too weak to quantify, mostly under pKd 3.1 to 4
Settings: plain residues with an end cap or a label only (N-terminal biotin on a linker: ado-ado)

Binder	pKd
RPGFASESKV [ADRB1, P08588]	below the threshold
GQETPLNTFC [MAP7D2, Q96T17]	below the threshold

Molecular target: T12, FRMPD1, Q5SYB0
Test: holdup assay
Design: key: below the threshold = too weak to quantify, mostly under pKd 3.1 to 4
Settings: plain residues with an end cap or a label only (N-terminal biotin on a linker: ado-ado)

Binder	pKd
RPGFASESKV [ADRB1, P08588]	below the threshold
GQETPLNTFC [MAP7D2, Q96T17]	below the threshold

Molecular target: T13, APBA3_1, O96018
Test: holdup assay
Design: key: below the threshold = too weak to quantify, mostly under pKd 3.1 to 4
Settings: plain residues with an end cap or a label only (N-terminal biotin on a linker: ado-ado)

Binder	pKd
RPGFASESKV [ADRB1, P08588]	below the threshold
GQETPLNTFC [MAP7D2, Q96T17]	below the threshold

Molecular target: IL16_1, Q14005
Test: holdup assay
Design: key: below the threshold = too weak to quantify, mostly under pKd 3.1 to 4
Settings: plain residues with an end cap or a label only (N-terminal biotin on a linker: ado-ado)

Chain of IL16_1, Q14005 (Q14005 210-306): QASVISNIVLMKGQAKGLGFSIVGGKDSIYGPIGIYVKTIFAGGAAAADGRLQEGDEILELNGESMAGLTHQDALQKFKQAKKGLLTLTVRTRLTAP

Binder	pKd
RPGFASESKV [ADRB1, P08588]	4.36
GQETPLNTFC [MAP7D2, Q96T17]	below the threshold
